± gives the uncertainty stated by the source.

A short description of this data set: amyloid nucleation score (Sup35N fusion, yeast selection) (log enrichment); library NNK2; higher = more nucleation; inactive = no reads after selection. A digest of the protocol:
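DiMSum was used to calculate nucleation scores as log enrichment of output over input reads, centred on the mode score of non-aggregating sequences. Sequences with fewer than 100 input reads were not scored. Input and output came from Illumina sequencing of plasmid inserts in psi-negative yeast expressing peptides of 20 random codons fused to Sup35N, induced 24 hours with 100 μM copper sulfate and then grown 7 days at 30°C on medium lacking adenine and uracil.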
For TAKDAFMFQGLASLS, the amyloid nucleation score entry was “inactive”.

MGLNYLKQQAARYDEGGPS: the amyloid nucleation score was found to be 1.5 ± 0.42.

For LPGCTTRLHVNLIGALECCK, the amyloid nucleation score turned out to be 0.077 ± 0.35.

The substance PFLSLAVFVTQAVVEHCCRC displayed an amyloid nucleation score of 7.48 ± 0.085.

Substance RHGVMLGAVGVGSNDGSFLS yielded an amyloid nucleation score of 2.29 ± 0.28.

In the case of VYLSSLDSRMRLSTCFRE, the amyloid nucleation score is -0.19 ± 0.35.

On to CLVVLISVVPMVGSLFSRCG, for which the amyloid nucleation score result is “inactive”.

In turn, LMFCIENLAVMESELMGSCR came in with an amyloid nucleation score of 0.464 ± 0.62.

Consider EVRSALYAYEGYLRVFRSFR, for which the amyloid nucleation score worked out at 0.819 ± 0.46.

Consider FMLNYERL, for which the amyloid nucleation score is -1.08 ± 0.42.

SFNVF: the amyloid nucleation score was -0.094 ± 0.6.

The substance WHGRCWTSAKLAYRTRKTMC had an amyloid nucleation score of 1.86 ± 0.17.

As for QSGFEVSCLSDMDSCYRSRN, the amyloid nucleation score turned out to be 0.509 ± 0.31.

The substance FHCNPIS gave an amyloid nucleation score of -0.277 ± 1.1.

LVWTVPTGVLFRHGC gave an amyloid nucleation score of 1.57 ± 0.24.

As for FCFFSLVRLYKGYRSSINLA, the amyloid nucleation score entry was “inactive”.

For INLRIVSPIDLIVRWEDPTW, the amyloid nucleation score is -1.44 ± 0.33.

Turning to CIFWLDYATFDTGLSLYMCE, the amyloid nucleation score was -0.094 ± 1.

SVGRTESAQYRKTV came in with an amyloid nucleation score of 0.568 ± 0.44.

In turn, DRMQVRSR returned an amyloid nucleation score of 0.944 ± 0.27.

VSMNDVLYLMCS displayed an amyloid nucleation score of -0.556 ± 0.25.

For RFEHGSTFGDDKL, the amyloid nucleation score was -1.26 ± 1.1.

Substance SRHKFRSITFIEIHPMI came in with an amyloid nucleation score of 0.012 ± 0.43.

Substance LDLSDHWACQIIGVL returned an amyloid nucleation score of 0.394 ± 0.43.

Regarding NADLMGIKSVKGS, the amyloid nucleation score was -0.352 ± 1.1.

In turn, KVELYYWVSTLSVCSLALYS gave an amyloid nucleation score of 6.07 ± 0.084.

With SDMLLVISWFSFVKNK, the amyloid nucleation score stood at 4.05 ± 0.073.

On to IGCSWSKQELVISNLLVFLF, for which the amyloid nucleation score was -1.52 ± 0.62.

Substance LCYWPYDSVYLLTRFTVNGF gave an amyloid nucleation score of -0.349 ± 0.25.

As to ILQYN, the amyloid nucleation score is -1.49 ± 0.62.

In turn, SHGVLRMAKIRSWGFDVTVM had an amyloid nucleation score of 0.02 ± 0.74.

Consider IGSWVVEFGRFGYCFHGVID, for which the amyloid nucleation score is 3.19 ± 0.089.

YLKKVQWYRQAYFGA returned an amyloid nucleation score of -0.694 ± 0.28.

For CCRNLRDRLNW, the amyloid nucleation score result was “inactive”.

In the case of VWLGVTSSPIIMSKNMSNVV, the amyloid nucleation score was 0.404 ± 0.36.

Substance RLGSRGSLSFYVHLTCWVEV displayed an amyloid nucleation score of -0.27 ± 0.79.

In the case of IMASLRMKDANCLSCTCYNR, the amyloid nucleation score was found to be 6.798 ± 0.027.

As to GSWLIEMCEVVSNSMTSMGP, the amyloid nucleation score was determined as 1.29 ± 0.3.

As to WHSTVSLWSHPFPHKATKEP, the amyloid nucleation score turned out to be 0.256 ± 0.42.

NLCHSNKCLNSRFSITHWV returned an amyloid nucleation score of 0.246 ± 0.8.

Substance NYSDFVVMTRSVLFWYCDQR gave an amyloid nucleation score of -0.424 ± 0.26.

In the case of EVSQGLDSILYLWYDEWDSA, the amyloid nucleation score is -0.608 ± 0.31.

Substance VSKSFFIVIV showed an amyloid nucleation score of 5.702 ± 0.047.

SMGMLP came in with an amyloid nucleation score of -0.641 ± 1.1.

GFVLILTAIYVVGCINICAM: the amyloid nucleation score was found to be 5.66 ± 0.064.

TTHVNLIKRRGYFRRCVFQL gave an amyloid nucleation score of 0.087 ± 0.79.

For VGFLW, the amyloid nucleation score amounted to 2.22 ± 0.13.

GMLMIVGARSRDVPYYGRCD came in with an amyloid nucleation score of 0.004 ± 1.1.

HYSIIWTAS yielded an amyloid nucleation score of 0.233 ± 0.46.

With CNSSSGHDKIVIGSLFRVFA, the amyloid nucleation score was -1.42 ± 0.62.

For the substance NRTFSQRSVRLVSCPLLSKA, the amyloid nucleation score result is “inactive”.

With RVTYDFFILWC, the amyloid nucleation score worked out at 4.465 ± 0.044.

CDYWYYIGRRNVEMEHRVTC: the amyloid nucleation score came out at 0.148 ± 1.

MCYCLYNVGPCGDGH registered an amyloid nucleation score of 1.23 ± 0.28.

As to AGGWVFFQGESSSLSNTSGS, the amyloid nucleation score entry was “inactive”.

Substance LQCRLIRVMYVMHCDVWVV had an amyloid nucleation score of -0.087 ± 0.24.

Regarding FVIVFVRRSNTFLAPQKVWG, the amyloid nucleation score was 1.6 ± 0.14.

Take PSMQVVKRVINFG: the amyloid nucleation score result is “inactive”.

Consider YIIDRKEHFLSKCY, for which the amyloid nucleation score was -0.738 ± 0.55.

TVRVST returned an amyloid nucleation score of -0.004 ± 0.36.

As for IGKGRFNVYCMN, the amyloid nucleation score was -0.64 ± 0.79.

The substance MKRIRLGNQVRCEAANCRGR returned an amyloid nucleation score of 1.1 ± 0.24.

Substance GINVCFKHTMV displayed an amyloid nucleation score of 3.28 ± 0.062.

For PAIISFQYLFGRRSELEKM, the amyloid nucleation score is 5.572 ± 0.047.

With IVRQIASFGRIRDRTRDDEW, the amyloid nucleation score came out at 3.05 ± 0.13.

As for QLWSAWWHTVKKTGRRWWHR, the amyloid nucleation score amounted to 0.921 ± 0.19.

Substance SSWLYGVYSSYMWMLF yielded an amyloid nucleation score of -1.45 ± 1.

In turn, RTVYRFNVRI displayed an amyloid nucleation score of 0.291 ± 0.27.

For the substance MVIGNLGLLLEGLRVEYLNH, the amyloid nucleation score entry is “inactive”.

DIIRMGFRPFWQGVCVRLSY came in with an amyloid nucleation score of -0.669 ± 0.63.

TVRFVRFYSPLWLSVTYRLT had an amyloid nucleation score of 0.412 ± 0.55.

With FPGPRRLSWFPGVQRVSMMI, the amyloid nucleation score was -0.243 ± 0.79.

The substance FYHISEVLVVPLRLELSVQL gave an amyloid nucleation score of 5.68 ± 0.07.

In turn, FNLSGWLMSSIRNNFLVPG registered an amyloid nucleation score of -1.01 ± 0.61.

IKVDSAWETIAVVM gave an amyloid nucleation score of 0.246 ± 0.33.

For the substance IKNLRNQGK, the amyloid nucleation score is -0.745 ± 0.61.

With YFLRYSS, the amyloid nucleation score result was “inactive”.

PDFFCRSVVNQKMYLKTLHY displayed an amyloid nucleation score of -1.03 ± 1.1.

Consider AMNVDIN, for which the amyloid nucleation score is -0.641 ± 0.24.

Turning to HLYLEYGNVTWGWVMVLIVG, the amyloid nucleation score result is “inactive”.

MRLLILDPYAREQ: the amyloid nucleation score result is “inactive”.

LVSYV came in with an amyloid nucleation score of -0.873 ± 0.76.

With TCGRYSYSWVFSESKS, the amyloid nucleation score entry was “inactive”.

Consider QIMLAGLRSLDLTVDRTFNS, for which the amyloid nucleation score entry was “inactive”.

For the substance FYFEMVTSD, the amyloid nucleation score result is “inactive”.

VYQYWYIAISLRGRPGQCRL showed an amyloid nucleation score of 4.06 ± 0.05.

LCYFCISGDRHSLEVKTLVT had an amyloid nucleation score of -0.527 ± 0.4.

With LDYRPCEDNDDVDVSEILHG, the amyloid nucleation score is 0.224 ± 0.25.

Regarding FIELMCWRSH, the amyloid nucleation score is -0.315 ± 0.45.

As for YHSFCWANMIHRINSIVRLL, the amyloid nucleation score entry was “inactive”.

As for NKATNKTDRVMKPSAKKDTE, the amyloid nucleation score is -0.796 ± 0.39.

For KTAVSNVRCMY, the amyloid nucleation score was -0.227 ± 0.62.

Regarding FHLIALNCRWADDLFIGSGV, the amyloid nucleation score was 0.374 ± 0.62.

VRRLLEAFWARKFFLVAITQ had an amyloid nucleation score of -0.237 ± 0.79.

With YIPMIKL, the amyloid nucleation score is -0.794 ± 0.43.

LKWVTFEST displayed an amyloid nucleation score of -0.418 ± 1.1.

On to RRLFRLVVYFLPNR, for which the amyloid nucleation score result is “inactive”.

In turn, ITFKISNGVWYLPKRL returned an amyloid nucleation score of 6.629 ± 0.038.

SMYLCDK showed an amyloid nucleation score of -0.621 ± 0.48.

With LWITTGNGGVPV, the amyloid nucleation score was -0.144 ± 0.45.

With HIFFTDKFGGYVFLYPDFVA, the amyloid nucleation score result is “inactive”.

The substance LTIFNYSFWKVDY showed an amyloid nucleation score of 0.91 ± 0.18.

On to HDYVLFISECHKLLGAS, for which the amyloid nucleation score entry was “inactive”.

With VCTNFWELMVWAQQLLFCKL, the amyloid nucleation score entry is “inactive”.

The substance FFVFGSWPHSSQGEGSLHKG registered an amyloid nucleation score of 0.387 ± 0.8.

As for PGDMLSGAFHMCISNCVTSC, the amyloid nucleation score was 0.319 ± 0.38.

On to NLYAPGSIYSASFFRVMTLG, for which the amyloid nucleation score is -1.04 ± 0.48.

Substance RTDFMHTIFLPCRGHGMSWF returned an amyloid nucleation score of 0.91 ± 0.35.

The substance KEPYHNYI returned an amyloid nucleation score of 0.179 ± 0.56.

The substance FLGWPGIRQCLLFVANNRGR gave an amyloid nucleation score of -0.448 ± 0.76.

For the substance YTAFLFICTRALLMPDMKFL, the amyloid nucleation score entry is “inactive”.

Substance STWDESWLHVLRWREFATLQ gave an amyloid nucleation score of 1.11 ± 0.22.

VFTGNLICYMDGGTGFSCFQ came in with an amyloid nucleation score of 9.018 ± 0.029.

For the substance VLSSRLASIEGNKSSVGFYG, the amyloid nucleation score entry is “inactive”.

In turn, VIPYVIQSYWMGMN yielded an amyloid nucleation score of -1.56 ± 0.75.

Regarding GRFDSRAFTDDMTKIPMYYL, the amyloid nucleation score worked out at 0.045 ± 0.36.

YYFIG displayed an amyloid nucleation score of 0.673 ± 0.24.

As for MVKSHLMTKFCD, the amyloid nucleation score is -0.394 ± 0.34.

As for LRMNYIAAVHSCAVLHHFNA, the amyloid nucleation score turned out to be 3.13 ± 0.073.

As for VSEIRDFCVVIGF, the amyloid nucleation score is 0.573 ± 0.36.

VFQQFNS: the amyloid nucleation score amounted to 0.244 ± 0.62.

The substance GLWLGWNLYVNKFV came in with an amyloid nucleation score of 0.385 ± 0.33.

In turn, VWVRIQMWYDIMSSASQLYR registered an amyloid nucleation score of 0.446 ± 0.33.

The substance FGFLPSVIWEASDIGSDCLE had an amyloid nucleation score of 0.072 ± 1.1.

In the case of CILRGLVASSNNSGSIGAMK, the amyloid nucleation score worked out at 0.361 ± 0.23.

Substance RLSIHKSFVFDLTRSALSTM displayed an amyloid nucleation score of -0.293 ± 0.55.

Take NGGTMLMRLDRS: the amyloid nucleation score is -0.216 ± 0.63.

Consider IICNLKISSMQDKGVMQAVF, for which the amyloid nucleation score was -0.871 ± 0.28.

On to LACTKQFQVAVVFPDYTFIA, for which the amyloid nucleation score came out at 3.71 ± 0.064.

Substance DVVNVSYGPVITFMSVFRVS gave an amyloid nucleation score of 7.556 ± 0.051.

As to CCSVCFRRLLYLLSRR, the amyloid nucleation score was 6.9 ± 0.068.

WDTLARYSGIQLVFE gave an amyloid nucleation score of -0.974 ± 0.55.

On to FDPLTFFGHRYCMQDMQLSD, for which the amyloid nucleation score was -0.027 ± 0.32.

Regarding EYMAITSFQKLFPHWFLSTE, the amyloid nucleation score entry is “inactive”.

TGLAIGCFLVCSVLYGDR displayed an amyloid nucleation score of 3.17 ± 0.13.

Regarding EACLNGAA, the amyloid nucleation score amounted to 0.638 ± 0.18.

In the case of CGQFAYYGACDVGIFFRS, the amyloid nucleation score worked out at 4.74 ± 0.037.

Consider DNYITLIAMKGYKTAYSTVS, for which the amyloid nucleation score is -0.116 ± 0.61.

Turning to MMFNSLCSYWTTDYFATPDL, the amyloid nucleation score turned out to be 6.778 ± 0.062.

On to FNIERCLLISGMLCSPAVEL, for which the amyloid nucleation score was -0.602 ± 1.1.

The record behind these values is the supplement of paper PMC12042874.
